Test results as given in article PMC4917739.

Legend:
[1] = molecular target: single-chain BG505 SOSIP.664 trimer (HIV-1 strain BG505); test: SPR
[2] = molecular target: BG505 SOSIP.664 trimer (HIV-1 strain BG505); test: SPR
[3] = molecular target: BG505 SOSIP.664 N88Q (HIV-1 strain BG505); test: SPR
[4] = molecular target: BG505 SOSIP.664 trimer (HIV-1 strain BG505); test: negative-stain electron microscopy

Fab VRC34.01
Kd [1]: 272 nM | Kd [2]: 0.3 nM | Kd [3]: 19.9 nM | stoichiometry N [4]: 3
